The test concerns human hemoglobin. Kind of test: Proteolysis of human hemoglobin by proteases, fructosyl amino acid detected (Comparative Example 3). Format: biochemical. The conditions noted are these: 1 mg/mL protease, 37° C. for 30 minutes; assay apparatus 2. How it is done: FIG. 2 was the flow type assay apparatus for fructosyl amino acid with the dialysis module. The buffer B was pumped out from the buffer tank (24) using the pump (25), and a 100 μL portion of the sample was injected using the valve (4). The protease-immobilized enzyme column (14), the second immobilized enzyme column (19), the electrode for hydrogen peroxide (20) and the flow type calorimeter (16) were not disposed. The fructosyl amino acid oxidase-immobilized column was placed in the first immobilized enzyme column (17). The injected sample transferred with the flowing buffer B, was carried to the dialysis module (27) in the incubator (13), and only the components with low molecular weight in the sample were permeated through the regenerated cellulose membrane with the membrane thickness of 20 μm and molecular weight cut off of 12000 to 14000 to a detection system (17, 18) of the fructosyl amino acid. Since the buffer A was pumped out from the buffer tank (1) by the pump (2), the components with low molecular weight in the sample dialyzed by the dialysis module passed through the fructosyl amino acid oxidase-immobilized column (17) and the electrode for hydrogen peroxide (18), and hydrogen peroxide produced from the fructosyl amino acid in the sample was detected. […]

B1: Proteinase K: protease from Tritirachium album, Sigma-Aldrich Co. (protein, UniProt P06873 106-384, looked up)
Proteinase K: AAQTNAPWGLARISSTSPGTSTYYYDESAGQGSCVYVIDTGIEASHPEFEGRAQMVKTYYYSSRDGNGHGTHCAGTVGSRTYGVAKKTQLFGVKVLDDNGSGQYSTIIAGMDFVASDKNNRNCPKGVVASLSLGGGYSSSVNSAAARLQSSGVMVAVAAGNNNADARNYSPASEPSVCTVGASDRYDRRSSFSNYGSVLDIFGPGTSILSTWIGGSTRSISGTSMATPHVAGLAAYLMTLGKTTAASACRYIADTANKGDLSNIPFGTVNLLAYNNYQA
As to B1, the “Result (detected value of the fructosyl amino acid after proteolysis)” value was “C (the detected value of less than 20 pA)”.

The record behind these values is patent US8128802B2, “Analysis apparatus and analysis method for glycosylated hemoglobin” (OJI Paper Co., Ltd, priority 2005, dated 2012).
